Target: human FcRn (human) (UniProt P55899)
Test: SPR (Biacore), pH 7.1; antibody captured on biot-IZ-hCD40L, soluble receptor as analyte

Kd: > 5 µM
Substance: 5c8-IgG1 (antibody)
